Source: IntAct's records for PubMed 31515488

B1: Mothers against decapentaplegic homolog 4 (Homo sapiens), Q13485 (parent)
chain: MDNMSITNTPTSNDACLSIVHSLMCHRQGGESETFAKRAIESLVKKLKEKKDELDSLITAITTNGAHPSKCVTIQRTLDGRLQVAGRKGFPHVIYARLWRWPDLHKNELKHVKYCQYAFDLKCDSVCVNPYHYERVVSPGIDLSGLTLQSNAPSSMMVKDEYVHDFEGQPSLSTEGHSIQTIQHPPSNRASTETYSTPALLAPSESNATSTANFPNIPVASTSQPASILGGSHSEGLLQIASGPQPGQQQNGFTGQPATYHHNSTTTWTGSRTAPYTPNLPHHQNGHLQHHPPMPPHPGHYWPVHNELAFQPPISNHPAPEYWCSIAYFEMDVQVGETFKVPSSCPIVTVDGYVDPSGGDRFCLGQLSNVHRTEAIERARLHIGKGVQLECKGEGDVWVRCLSDHAVFVQSYYLDREAGRAPGDAVHKIYPSAYIKVFDLRQCHRQMQQQAATAQAAAAAQAAAVAGNIPGPGSVGGIAPAISLSAAAGIGVDDLRRLCILRMSFVKGWGPDYPRQSIKETPCWIEIHLHRALQLLDEVLHTMPIADPQPLD
partner: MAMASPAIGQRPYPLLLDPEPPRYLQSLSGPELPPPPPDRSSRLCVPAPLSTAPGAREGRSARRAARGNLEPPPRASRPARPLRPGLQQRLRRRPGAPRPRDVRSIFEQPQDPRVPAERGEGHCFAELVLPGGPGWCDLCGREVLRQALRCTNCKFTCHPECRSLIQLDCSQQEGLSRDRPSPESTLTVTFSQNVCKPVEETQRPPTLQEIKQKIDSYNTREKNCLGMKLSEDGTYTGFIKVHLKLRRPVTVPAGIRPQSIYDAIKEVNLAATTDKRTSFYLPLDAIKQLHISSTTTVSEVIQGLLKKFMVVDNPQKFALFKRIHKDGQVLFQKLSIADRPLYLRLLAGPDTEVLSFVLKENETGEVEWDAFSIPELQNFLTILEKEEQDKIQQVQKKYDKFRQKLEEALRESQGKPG
B2: Four and a half LIM domains protein 3 (Homo sapiens), Q13643 (parent)
chain: MSESFDCAKCNESLYGRKYIQTDSGPYCVPCYDNTFANTCAECQQLIGHDSRELFYEDRHFHEGCFRCCRCQRSLADEPFTCQDSELLCNDCYCSAFSSQCSACGETVMPGSRKLEYGGQTWHEHCFLCSGCEQPLGSRSFVPDKGAHYCVPCYENKFAPRCARCSKTLTQGGVTYRDQPWHRECLVCTGCQTPLAGQQFTSRDEDPYCVACFGELFAPKCSSCKRPIVGLGGGKYVSFEDRHWHHNCFSCARCSTSLVGQGFVPDGDQVLCQGCSQAGP
partner: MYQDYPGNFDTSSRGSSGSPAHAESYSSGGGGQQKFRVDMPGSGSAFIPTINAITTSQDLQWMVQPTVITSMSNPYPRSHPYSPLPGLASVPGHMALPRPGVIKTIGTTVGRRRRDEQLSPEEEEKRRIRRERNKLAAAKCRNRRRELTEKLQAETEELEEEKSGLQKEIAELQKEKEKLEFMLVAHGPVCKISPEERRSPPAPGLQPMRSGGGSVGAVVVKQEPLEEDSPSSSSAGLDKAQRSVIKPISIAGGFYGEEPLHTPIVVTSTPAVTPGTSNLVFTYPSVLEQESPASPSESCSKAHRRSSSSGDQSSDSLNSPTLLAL
B3: Plasma alpha-L-fucosidase (Homo sapiens), Q9BTY2 (parent)
chain: MRPQELPRLAFPLLLLLLLLLPPPPCPAHSATRFDPTWESLDARQLPAWFDQAKFGIFIHWGVFSVPSFGSEWFWWYWQKEKIPKYVEFMKDNYPPSFKYEDFGPLFTAKFFNANQWADIFQASGAKYIVLTSKHHEGFTLWGSEYSWNWNAIDEGPKRDIVKELEVAIRNRTDLRFGLYYSLFEWFHPLFLEDESSSFHKRQFPVSKTLPELYELVNNYQPEVLWSDGDGGAPDQYWNSTGFLAWLYNESPVRGTVVTNDRWGAGSICKHGGFYTCSDRYNPGHLLPHKWENCMTIDKLSWGYRREAGISDYLTIEELVKQLVETVSCGGNLLMNIGPTLDGTISVVFEERLRQMGSWLKVNGEAIYETHTWRSQNDTVTPDVWYTSKPKEKLVYAIFLKWPTSGQLFLGHPKAILGATEVKLLGHGQPLNWISLEQNGIMVELPQLTIHQMPCKWGWALALTNVI
B4: Modulator of apoptosis 1 (Homo sapiens), Q96BY2 (parent)
chain: MTLRLLEDWCRGMDMNPRKALLIAGISQSCSVAEIEEALQAGLAPLGEYRLLGRMFRRDENRKVALVGLTAETSHALVPKEIPGKGGIWRVIFKPPDPDNTFLSRLNEFLAGEGMTVGELSRALGHENGSLDPEQGMIPEMWAPMLAQALEALQPALQCLKYKKLRVFSGRESPEPGEEEFGRWMFHTTQMIKAWQVPDVEKRRRLLESLRGPALDVIRVLKINNPLITVDECLQALEEVFGVTDNPRELQVKYLTTYQKDEEKLSAYVLRLEPLLQKLVQRGAIERDAVNQARLDQVIAGAVHKTIRRELNLPEDGPAPGFLQLLVLIKDYEAAEEEEALLQAILEGNFT
partner: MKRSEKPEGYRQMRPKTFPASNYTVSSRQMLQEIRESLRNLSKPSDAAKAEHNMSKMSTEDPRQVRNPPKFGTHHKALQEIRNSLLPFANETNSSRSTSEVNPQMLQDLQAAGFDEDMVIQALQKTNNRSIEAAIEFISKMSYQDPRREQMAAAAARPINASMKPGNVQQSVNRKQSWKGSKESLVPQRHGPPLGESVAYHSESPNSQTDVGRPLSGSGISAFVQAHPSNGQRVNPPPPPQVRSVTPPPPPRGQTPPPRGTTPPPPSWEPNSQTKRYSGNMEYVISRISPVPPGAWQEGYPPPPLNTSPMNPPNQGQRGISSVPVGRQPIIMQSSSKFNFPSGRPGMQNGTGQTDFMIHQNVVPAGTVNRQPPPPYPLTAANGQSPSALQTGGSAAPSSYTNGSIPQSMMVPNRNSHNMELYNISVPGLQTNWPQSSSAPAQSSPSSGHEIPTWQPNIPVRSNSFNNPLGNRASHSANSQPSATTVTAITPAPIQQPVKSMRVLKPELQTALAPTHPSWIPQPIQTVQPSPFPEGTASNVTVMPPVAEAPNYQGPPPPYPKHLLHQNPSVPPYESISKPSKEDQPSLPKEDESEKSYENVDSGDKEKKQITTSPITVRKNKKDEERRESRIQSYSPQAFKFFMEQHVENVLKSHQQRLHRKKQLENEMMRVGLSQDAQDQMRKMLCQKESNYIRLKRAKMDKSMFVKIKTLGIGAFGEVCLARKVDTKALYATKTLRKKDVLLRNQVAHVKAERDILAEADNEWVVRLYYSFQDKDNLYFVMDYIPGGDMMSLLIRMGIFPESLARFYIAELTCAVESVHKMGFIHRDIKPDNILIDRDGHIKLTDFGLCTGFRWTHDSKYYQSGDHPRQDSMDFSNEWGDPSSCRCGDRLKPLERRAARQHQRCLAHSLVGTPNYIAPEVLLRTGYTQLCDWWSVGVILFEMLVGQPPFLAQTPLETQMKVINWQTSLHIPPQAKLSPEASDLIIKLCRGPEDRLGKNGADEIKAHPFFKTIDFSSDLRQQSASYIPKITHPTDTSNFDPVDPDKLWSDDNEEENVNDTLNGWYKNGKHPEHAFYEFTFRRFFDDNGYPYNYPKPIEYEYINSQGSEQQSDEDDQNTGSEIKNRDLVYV
B5: RING finger protein 11 (Homo sapiens), Q9Y3C5 (parent)
chain: MGNCLKSPTSDDISLLHESQSDRASFGEGTEPDQEPPPPYQEQVPVPVYHPTPSQTRLATQLTEEEQIRIAQRIGLIQHLPKGVYDPGRDGSEKKIRECVICMMDFVYGDPIRFLPCMHIYHLDCIDDWLMRSFTCPSCMEPVDAALLSSYETN
B6: Pre-mRNA-splicing factor SPF27 (Homo sapiens), O75934 (parent)
chain: MAGTGLVAGEVVVDALPYFDQGYEAPGVREAAAALVEEETRRYRPTKNYLSYLTAPDYSAFETDIMRNEFERLAARQPIELLSMKRYELPAPSSGQKNDITAWQECVNNSMAQLEHQAVRIENLELMSQHGCNAWKVYNENLVHMIEHAQKELQKLRKHIQDLNWQRKNMQLTAGSKLREMESNWVSLVSKNYEIERTIVQLENEIYQIKQQHGEANKENIRQDF
partner: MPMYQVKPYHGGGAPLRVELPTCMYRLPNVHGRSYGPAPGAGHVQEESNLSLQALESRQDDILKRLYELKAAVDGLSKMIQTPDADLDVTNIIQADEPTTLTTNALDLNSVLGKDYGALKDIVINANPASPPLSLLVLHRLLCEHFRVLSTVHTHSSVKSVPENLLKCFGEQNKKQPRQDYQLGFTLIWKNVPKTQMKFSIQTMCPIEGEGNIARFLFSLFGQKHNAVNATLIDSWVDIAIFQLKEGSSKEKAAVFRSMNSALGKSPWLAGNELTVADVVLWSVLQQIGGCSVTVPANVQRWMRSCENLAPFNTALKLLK

Variants of: B1
Details: with rasf5_human RASSF5, Q8WWW0

| effect of a mutation on the interaction | Variant |
| --- | --- |
| disrupting interaction strength | V350D |
| with no effect | E330K |
| disrupting interaction strength | C324R |
| with no effect | N13S |
| with no effect | G352R |

Variants of: B2
Details: with fosl2_human FOSL2, P15408

| effect of a mutation on the interaction | Variant |
| --- | --- |
| with no effect | MSESFDCAKCNESLYGRKYIQTDSGPYCVPCYDNTFANTCAECQQLIGHDSRELFYEDRHFHEGCFRCCRCQRSLADEPFTCQDSELLCNDCYCSAFSSQCSACGETVMPGSRKLEYGGQTWHEHCFLCSGCEQPLGSRSFVPDKGAHYCVPCYENKFAPRCARCSKTLTQGGVTYRDQPWHRECLVCTGCQTPLAGQQFTSRDEDPYCVACFGELFAPKCSSCKHPIVGLGGGKYVSFEDRHWHHNCFSCARCSTSLVGQGFVPDGDQVLCQGCSQAGP [R226H] |

Variants of: B3
Details: with meox2_human MEOX2, P50222
Chain of meox2_human MEOX2, P50222 (P50222 whole entry): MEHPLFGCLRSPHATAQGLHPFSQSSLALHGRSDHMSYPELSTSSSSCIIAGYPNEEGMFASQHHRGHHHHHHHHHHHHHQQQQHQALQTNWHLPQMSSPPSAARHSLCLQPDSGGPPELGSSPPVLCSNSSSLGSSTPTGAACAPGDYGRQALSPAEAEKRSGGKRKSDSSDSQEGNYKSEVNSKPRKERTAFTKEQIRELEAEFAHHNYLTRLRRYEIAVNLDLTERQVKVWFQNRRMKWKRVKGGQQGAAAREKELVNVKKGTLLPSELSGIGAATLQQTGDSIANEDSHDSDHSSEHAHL

| effect of a mutation on the interaction | Variant |
| --- | --- |
| with no effect | MRPQELPRLAFPLLLLLLLLLPPPPCPAHSATRFDPTWESLDARQLPAWFDQAKFGIFIHWGVFSVPSFGSEWFWWYWQKEKIPKYVEFMKDNYPPSFKYEDFGPLFTAKFFNANQWADIFQASGAKYIVLTSKHHEGFTLWGSEYSWNWNAIDEGPKRDIVKELEVAIRNRTDLRFGLYYSLFEWFHPLFLEDESSSFHKRQFPVSKTLPELYELVNNYQPEVLWSDGDGGEPDQYWNSTGFLAWLYNESPVRGTVVTNDRWGAGSICKHGGFYTCSDRYNPGHLLPHKWENCMTIDKLSWGYRREAGISDYLTIEELVKQLVETVSCGGNLLMNIGPTLDGTISVVFEERLRQMGSWLKVNGEAIYETHTWRSQNDTVTPDVWYTSKPKEKLVYAIFLKWPTSGQLFLGHPKAILGATEVKLLGHGQPLNWISLEQNGIMVELPQLTIHQMPCKWGWALALTNVI [A233E] |

Variants of: B4
Details: with lats1_human LATS1, O95835

| effect of a mutation on the interaction | Variant |
| --- | --- |
| disrupting interaction strength | MTLRLLEDWCRGMDMNPRKALLIAGISQSCSVAEIEEALQAGLAPLGEYRLLGRMFKRDENRKVALVGLTAETSHALVPKEIPGKGGIWRVIFKPPDPDNTFLSRLNEFLAGEGMTVGELSRALGHENGSLDPEQGMIPEMWAPMLAQALEALQPALQCLKYKKLRVFSGRESPEPGEEEFGRWMFHTTQMIKAWQVPDVEKRRRLLESLRGPALDVIRVLKINNPLITVDECLQALEEVFGVTDNPRELQVKYLTTYQKDEEKLSAYVLRLEPLLQKLVQRGAIERDAVNQARLDQVIAGAVHKTIRRELNLPEDGPAPGFLQLLVLIKDYEAAEEEEALLQAILEGNFT [R57K] |

Variants of: B5
Details: with ub2d4_human UBE2D4, Q9Y2X8
Chain of ub2d4_human UBE2D4, Q9Y2X8 (Q9Y2X8 whole entry): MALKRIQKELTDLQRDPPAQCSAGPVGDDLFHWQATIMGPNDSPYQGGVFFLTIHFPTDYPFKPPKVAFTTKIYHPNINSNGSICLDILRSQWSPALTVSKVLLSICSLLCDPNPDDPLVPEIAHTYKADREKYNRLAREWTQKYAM

| effect of a mutation on the interaction | Variant |
| --- | --- |
| with no effect | MGNCLKSPTSDDISLLHESQSDRASFGEGTEPDQEPPPPYQEQVPVPVYHPTPSQTRLATQLTEEEQIRIAQRIGLIQHLPKGVYDPGRDGSEKKIWECVICMMDFVYGDPIRFLPCMHIYHLDCIDDWLMRSFTCPSCMEPVDAALLSSYETN [R97W] |

Variants of: B6
Details: with aimp2_human AIMP2, Q13155

| effect of a mutation on the interaction | Variant |
| --- | --- |
| with no effect | MAGTGLVAGEVVVDALPYFDQGYEAPGVREAAAALVEEETRRYRPTKNYLSYLTAPDYSAFETDIMRNEFERLAARQPIELLSMKRYELPAPSSGQKNDITAWQECVNNSMAQLEHQAVRIENLELMSQHGCNAWKVYSENLVHMIEHAQKELQKLRKHIQDLNWQRKNMQLTAGSKLREMESNWVSLVSKNYEIERTIVQLENEIYQIKQQHGEANKENIRQDF [N139S] |
